{
  "source": "patent US7244563B2",
  "about": "“Genes for plant fatty acid modifying enzymes associated with conjugated double bond formation” (E. I. du Pont de Nemours and Company, priority 2002, dated 2007)",
  "key": {"[1]": {"test_system": "soybean embryos", "assay": "Fatty acid composition of transgenic soybean somatic embryos (GC, GC-MS)", "format": "cell-based", "protocol": "Gene fusions of the Impatiens balsamina or Momordica charantia cDNAs with the conglycinin promoter and phaseolin termination sequences in vector pKS67 were introduced into soybean embryos using the particle bombardment method of transformation. To induce somatic embryos, cotyledons, 3–5 mm in length dissected from surface sterilized, immature seeds of a soybean cultivar A2872 or JACK-910 were cultured in the light or dark at 26° C. on an appropriate agar medium for 6–10 weeks. Somatic embryos that produce secondary embryos were then excised and placed into a suitable liquid medium. After repeated selection for clusters of somatic embryos that multiplied as early, globular staged embryos, the suspensions were maintained as described below.\nSoybean embryogenic suspension cultures were then transformed with the vector pKS67 containing the Impatiens or Momordica cDNA for fatty acid modifying enzymes associated with conjugated double synthesis by the method of particle gun bombardment (Klein et al. (1987) Nature (London) 327:70, U.S. Pat. No. 4,945,050). A DuPont Biolistic™ PDS1000/HE instrument (helium retrofit) was used for these transformations.\nFive to seven days post bombardment, the liquid media was exchanged with fresh media, and eleven to twelve days post bombardment with fresh media containing […] hygromycin. This selective media was refreshed weekly. Seven to eight weeks post bombardment, green, transformed tissue was observed growing from untransformed, necrotic embryogenic clusters. Isolated green tissue was removed and inoculated into individual flasks to generate new, clonally propagated, transformed embryogenic suspension cultures. Each new line was treated as an independent transformation event. These suspensions were then subcultured and maintained as clusters of immature embryos.\nTransgenic soybean embryos selected and maintained in this manner were analyzed for eleostearic acid and parinaric acid content using methods described in Example 4 (Table 1). Individual embryos expressing either the Impatiens or Momordica fatty acid modifying enzyme for conjugated double bond synthesis were homogenized in 1% (w/v) sodium methoxide in methanol. Fatty acid methyl esters resulting from this transesterification step were analyzed by both GC and GC-MS as described in Example 4. Methyl esters of eleostearic and parinaric acids were identified in transgenic soybean extracts by comparison of retention times and mass spectra with those of fatty acid methyl esters prepared from seeds of Impatiens balsamina and Momordica charantia. […] In soybean embryos expressing the Momordica enzyme, eleostearic acid was detected principally as α-eleostearic acid with lesser amounts of at least two other cis-trans isomers of eleostearic acid. […]"}, "[2]": {"test_system": "Tobacco (Nicotiana tabacum L. cv Xanthi) callus", "assay": "Fatty acid analysis (GC, GC-MS) of transgenic tobacco callus expressing the cDNA", "format": "cell-based", "conditions": "pBI121, 35S promoter, highest amount", "source_text": "The cDNAs encoding fatty acid modifying enzymes associated with conjugated double bond synthesis in seeds of Impatiens balsamina and Momordica charantia were introduced into a plant expression vector designated pML63. Vector pML63 contains the uidA gene (which encodes the GUS enzyme) operably linked to the CaMV35S promoter and 3′ NOS sequence. pML63 is modified from pMH40 to produce a minimal 3′ NOS terminator fragment. pMH 40 is described in WO 98/16650 which was published on Apr. 23, 1998, the disclosure of which are hereby incorporated by reference. Using standard techniques familiar to those skilled in the art, the 770 base pair terminator sequence contained in pMH40 was replaced with a new 3′ NOS terminator sequence comprising nucleotides 1277 to 1556 of the sequence published by Depicker et al. (1982, J. Appl. Genet. 1:561–574). A chimeric gene was constructed comprising cDNAs encoding fatty acid modifying enzymes associated with conjugated double bond synthesis in seeds of Impatiens balsamina and Momordica charantia in sense orientation with respect to the cauliflower mosaic virus 35S promoter that is located 5′ to the cDNA fragment and termination sequences from the nopaline synthase (NOS) that are located 3′ to the cDNA fragment. The cDNAs for the Impatiens polypeptide was introduced in the NcoI and EcoRI sites of the vector pML63. The cDNA for the Momordica polypeptide was introduced into the NcoI and SmaI sites of the vector pML63. The NcoI and EcoRI sites flanking the Impatiens cDNA were generated by PCR amplification of the cDNAs using oligonucleotide primers that contained these restriction sites (SEQ ID NO:7 and SEQ ID NO:8, for the sense and antisense oligonucleotides, respectively). PCR amplification was conducted using the Pfu DNA polymerase. The NcoI site flanking the 5′ end of the Momordica cDNA was generated by PCR amplification in a similar manner (SEQ ID NO:9 and SEQ ID NO:10). The 3′ end of the PCR-generated Momordica cDNA was blunt-ended which allowed for cloning into the SmaI site of the vector pML63. The resulting fusions of the cauliflower mosaic virus 35S promoter with the cDNAs encoding fatty acid modifying enzymes associated with conjugated double bond synthesis in seeds of Impatiens balsamina or Momordica charantia and NOS termination sequences were released from the vector pML63 by digestion with XbaI. The resulting XbaI fragment was ligated into the corresponding site of the binary vector pZS199 The vector pZS199 contains the following elements: (1) the chimeric gene nopaline synthase/neomycin phosphotransferase as a selectable marker for transformed plant cells (Brevan et al. (1984) Nature 304:184–186), (2) the left and right borders of the T-DNA of the Ti plasmid (Brevan et al. (1984) Nucl. Acids Res. 12:8711–8720), (3) the E. coli lacZ-complementing segment (Vieria and Messing (1982) Gene 19:259–267) with unique restriction endonuclease sites for EcoRI, KpnI, BamHI, XbaI and SalI, (4) the bacterial replication origin from the Pseudomonas plasmid pVS1 (Itoh et al. (1984) Plasmid 11:206–220), and (5) the bacterial neomycin phosphotransferase gene from Tn5 (Berg et al. (1975) Proc. Natl. Acad. Sci. U.S.A. 72:3628–3632) as a selectable marker for transformed A. tumefaciens. The nopaline synthase promoter in the plant selectable marker was replaced by the 35S promoter (Odell et al. (1985) Nature, 313:810–813) by a standard restriction endonuclease digestion and ligation strategy.\nGene fusions of the Impatiens balsamina or Momordica charantia cDNAs with the cauliflower mosaic virus 35S promoter and the NOS termination sequences in vector pZS199 were introduced into Agrobacterium tumefaciens strain LBA4404. […]"}, "[3]": {"conditions": "soybean embryos, six independent transgenic lines (n = 6), ± standard deviation, % of total oil weight"}},
  "data": [
    {"molecule": "ChrFad2: Chrysobalanus icaco fatty acid modifying enzyme associated with conjugated double bond synthesis, SEQ ID NO:20, cDNA SEQ ID NO:19 (protein, Chrysobalanus icaco) MGAGGQKTFPRLEEEEKQQQAAAAGFKRIPTTKPPFTLSDLKKAIPPHCFQRSLLRSFSYVFIDLTIISILGYIGATYICLLPPPSKYLAWLLYWAVQGCFFTGAWALAHDCGHHAFSDYQWIDDAVGMVLHSTLMVPYFSFKYSHRRHHSNINSLERDEVFVPRPKSKIKWYCSKYLNNPLGRVLTLAVTLILGWPMYLALNASGRDYDRFVSHFYPYGPIYNDRERLQIYISDAGIFIVSYVLYQVALAKGLPWLICIYGVPLFVNNALVVTITYLQHTHPELPRYGNSEWDWFKGTLATVDRDMGPLLNWATHHVSDTHYVHHLFSTMPHYHGVEATKAVKPMLGEYYRFDPTPLYKALWREAKECLFVEPDSKSPGVFWFDKF", "values": [
      {"measurement": "16:0", "setting": "[1]; soybean embryos, single embryos from six independent transgenic lines (n = 6), ± standard deviation, % of total oil weight", "value": "7.0 ± 1.4", "unit": "Weight %"},
      {"measurement": "18:0", "setting": "[1]; [3]", "value": "1.9 ± 0.6", "unit": "Weight %"},
      {"measurement": "18:1", "setting": "[1]; [3]", "value": "37.6 ± 6.2", "unit": "Weight %"},
      {"measurement": "18:2", "setting": "[1]; [3]", "value": "28.1 ± 3.8", "unit": "Weight %"},
      {"measurement": "18:3", "setting": "[1]; [3]", "value": "6.0 ± 2.5", "unit": "Weight %"},
      {"measurement": "α-Parinaric", "setting": "[1]; [3]", "value": "0.9 ± 0.3", "unit": "Weight %"},
      {"measurement": "Eleostearic", "setting": "[1]; soybean embryos, six independent transgenic lines (n = 6), includes cis-trans isomers of α-eleostearic acid (<1.0 wt %)", "value": "16.4 ± 2.4", "unit": "Weight %"},
      {"measurement": "Other", "setting": "[1]; soybean embryos, six independent transgenic lines (n = 6), primarily 20:0, 20:1, 22:0, and 22:1", "value": "<2.1", "unit": "Weight %"},
      {"measurement": "α-paranaric acid of the total fatty acids", "setting": "[1]; soybean somatic embryos, β-conglycinin promoter", "value": "approximately 1 wt %"},
      {"measurement": "α-eleostearic acid of the total fatty acids", "setting": "[1]; soybean somatic embryos, β-conglycinin promoter, highest amount", "value": "≤ 21", "unit": "wt %"},
      {"measurement": "α-eleostearic acid of the total fatty acids of callus samples", "setting": "[2]", "value": "≤ 4.7", "unit": "wt %"},
      {"measurement": "α-paranaric acid of the total fatty acids of callus samples", "setting": "[2]", "value": "≤ 0.4", "unit": "wt %"}
    ]}
  ]
}
